Data on seven molecules can be found in patent US20160003835, “APTAMERS AND USES THEREOF” (CARIS LIFE SCIENCES SWITZERLAND HOLDINGS S.A.R.L., published 2016).

The target of one series is PSMA (FOLH1/NAALADase I) (UniProt Q04609 Q04609:44-750). Nature of the series: ELONA; ELISA against recombinant PSMA, values only in figure. As to conditions: label: biotin.
Series [1] deals with T1, EpCAM (UniProt P16422 P16422:24-265).
T1 sequence: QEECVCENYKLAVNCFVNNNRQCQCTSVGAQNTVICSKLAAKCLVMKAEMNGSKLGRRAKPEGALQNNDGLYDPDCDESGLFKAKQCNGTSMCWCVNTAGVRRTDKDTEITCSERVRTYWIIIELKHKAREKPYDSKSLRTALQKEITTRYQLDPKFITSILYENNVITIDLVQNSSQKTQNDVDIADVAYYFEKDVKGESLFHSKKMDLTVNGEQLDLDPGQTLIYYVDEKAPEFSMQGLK
Nature of the series: SPR; immobilized biotinylated aptamer, HBS-EP+ buffer, global fit. The settings on record: label: biotin. For orientation: In SPR one partner is held on a chip, and binding of the other changes the refractive index at the surface.

Series [2] addresses T1, EpCAM. Put plainly: bead fluorescence assay, anti-His beads; improved by 1 mM MgCl2 in 25 mM HEPES; lower affinity than Aptamer 4. The settings on record: tags: His tag; label: biotin / SA-PE. The method, then: Purified CAR003 aptamer was tested for binding to recombinant EPCAM protein with a polyhistidine tag (“His tagged”) using the following internally developed assay. Anti-His tag conjugated beads were mixed with EPCAM-His tagged protein. The aptamer to be tested was labeled with streptavidin-phycoerythrin (SA-PE). The EpCAM-beads and SA-PE labeled aptamers were mixed. Binding was determined as median flourescent value in a bead assay as described herein. MFI values (FIG. 20E-F) increase with increased binding of the SA-PE labeled aptamer to the recombinant EpCAM. FIGS. 20E-F illustrate binding of CAR003 to EPCAM protein in 25 mM HEPES with PBS-BN (PBS, 1% BSA, 0.05% Azide, pH 7.4) (FIG. 20E) or in 25 mM HEPES with 1 mM MgCl₂ (FIG. 20F). EPCAM aptamer Aptamer 4 (see above) was used for comparison. As shown in the figures, CAR003 pool 3 more efficiently binds its target in the presence of MgCl₂ (FIG. 20F) than in the presence of BSA (FIG. 20E).
CAR003 affinity to EpCAM in the bead assay environment was assessed in the same assay as above with aptamer titrated across a constant input of antigen. FIG. 20I illustrates titration of aptamers against EPCAM recombinant protein (constant input 5 μg).

Series [3] deals with T1, EpCAM. Put plainly: ELONA; standard ELISA plate. As to conditions: tags: Fc fusion; label: biotin.
Series [4] addresses T1, EpCAM. Put plainly: SPR; immobilized biotinylated aptamer, HBS-EP+ buffer, global fit. The settings on record: label: biotin. The procedure: FIG. 4 illustrates results from a binding assay showing the binding affinity of an exemplary aptamer (Aptamer ID BTX176881 (SEQ ID NO. 98883)) to the target EpCAM protein at various target concentrations. The aptamer to be tested is fixed to a substrate using a biotin tail and is incubated with various concentrations of target (125, 250 and 500 nM). The test is performed on a surface plasmon resonance machine (SPR). The SPR machine detects association and disassociation of the aptamer and the target. Target is applied until the association and disassociation events are equal, resulting in a plateau of the curve. The equations describing the curve at each concentration can then be used to calculate the KD of the aptamer (see Table 5).
The Biacore 200 control software is programmed with the following conditions: Solution: HBS-EP+Buffer; Number of cycles: 3; Contact time: 120s; Flow rate: 30 μl/min; Dissociation time: 300s; Solution: Glycine-HCl pH 2.5; Contact time: 120s; Flow rate: 20 μl/min; Stabilization period: Os. The binding affinities of these aptamers are then measured using the SPR assay above, or an alternate in vitro assay assessing the aptamer for a desired function.
This is another data set of the same source.

PSMA (FOLH1/NAALADase I), sequence (Q04609 44-750, one chain of several): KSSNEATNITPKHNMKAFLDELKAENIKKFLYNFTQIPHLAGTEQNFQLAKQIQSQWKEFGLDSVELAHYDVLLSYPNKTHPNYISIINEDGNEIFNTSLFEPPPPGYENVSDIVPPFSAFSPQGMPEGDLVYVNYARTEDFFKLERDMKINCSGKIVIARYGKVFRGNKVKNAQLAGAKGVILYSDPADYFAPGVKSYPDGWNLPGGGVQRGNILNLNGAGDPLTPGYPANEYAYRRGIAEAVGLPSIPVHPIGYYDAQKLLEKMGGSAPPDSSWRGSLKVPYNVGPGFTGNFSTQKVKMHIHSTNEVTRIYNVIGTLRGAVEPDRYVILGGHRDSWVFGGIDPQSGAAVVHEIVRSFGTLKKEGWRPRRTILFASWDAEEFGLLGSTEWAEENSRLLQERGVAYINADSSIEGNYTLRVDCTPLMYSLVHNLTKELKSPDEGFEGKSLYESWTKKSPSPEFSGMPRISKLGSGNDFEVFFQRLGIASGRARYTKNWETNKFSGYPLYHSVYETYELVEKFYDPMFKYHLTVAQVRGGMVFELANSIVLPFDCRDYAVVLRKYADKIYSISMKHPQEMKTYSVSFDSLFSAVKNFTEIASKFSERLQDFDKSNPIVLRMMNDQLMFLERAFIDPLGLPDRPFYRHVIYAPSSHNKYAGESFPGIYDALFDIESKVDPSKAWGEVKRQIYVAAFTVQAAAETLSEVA

B1: CAR050 (ssDNA)
DNA: ACTAAGCCACCGTGTCCACCCCCCTCTGTCTCTTGTTTCTCTTTTCTATGCTGCGTCACTCTGGAT
modifications: 5' biotin
As to B1, in the series with PSMA (FOLH1/NAALADase I), the binding result is on record as “binds”.

B2: Aptamer 4 (ssDNA)
DNA: CCCCCCGAATCACATGACTTGGGCGGGGGTCG
modifications: 3' tail of 6 thymines and biotin
Broadly, the Kd is the concentration at which binding is half-saturated. Read a low Kd as higher affinity. For the molecule B2, the dissociation constant (Kd) with EpCAM [1] came to 10.1 nM.

B3: CAR003 (ssDNA)
DNA: ATCCAGAGTGACGCAGCAGTCTTTTCTGATGGACACGTGGTGGTCTAGTATCTGGACACGGTGGCTTAGT
modifications: 3' biotin (CAR003.2_3'-B, same bases as SEQ 230823)
Take B3: the binding result with EpCAM [2] was “binds”.

B4: CAR016 (ssDNA)
DNA: ACTAAGCCACCGTGTCCAACGTAAGTATATCTGTACAATGCTGCGTCACTCTGGAT
modifications: 5' biotin
As for B4, the binding result with EpCAM [3] is on record as “binds”.

B5: BTX187269 (ssDNA)
DNA: CTGTGAGGCGTACTGCGGTGAGCCTCTCATTA
modifications: 3' tail of 6 thymines and biotin
In the series with EpCAM [1], B5 had a Kd of 7.12 nM.

B6: CAR051 (ssDNA)
DNA: ACTAAGCCACCGTGTCCAGCCCTATTCCCTCGCTTTCTCCCCTTTTGTTGCTGCGTCACTCTGGAT
modifications: 5' biotin
For the molecule B6, the binding result with PSMA (FOLH1/NAALADase I) is on record as “binds”.

B7: BTX176881 (ssDNA)
DNA: CCGCGCAGATATACAACGTACCTCTGTGCGCA
modifications: 3' tail of 6 thymines and biotin
In turn, B7 displayed a dissociation constant Kd with EpCAM [4] of 8.4 nM.
